Measurements taken from the supplement of paper PMC10567573.

B1: SMOC2 (parent)
chain: DCAGSPQKPLCASDGRTFLSRCEF

Variants of: B1
Test: protein stability index of a GFP-peptide fusion (GPS, HEK-293T) (PSI 1-6); higher = more stable
Details: c terminus: a fixed tail appended
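Note: lentivirally expressed fusions sorted by FACS into six bins by GFP to DsRed ratio, PSI derived from sequencing read proportions per bin multiplied by bin number.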

Protein stability index: each site, then its substitutions
P6: V 1.8 | W 2.08 | Q 2.75 | R 2.19 | A 1.73 | E 3.15 | S 3.39 | H 2.21 | K 1.69 | T 2.53
S5: T 2.24 | N 2.78 | K 2.72 | R 2.66 | A 2.94 | W 2.46 | E 2.56 | I 2.14 | P 2.72 | L 2.46 | D 2.96 | C 2.24 | F 1.72 | V 2.76 | Y 2.68 | G 3.07 | M 2.52 | Q 2.09
C2: W 2.23 | Y 2.63 | Q 3.12 | N 2.81 | T 3.5 | E 3.84 | V 2.58 | M 2.86 | R 3.19 | K 3.03 | A 2.79 | P 3.4 | H 3.36 | I 2.25 | G 3.66 | D 3.44 | S 2.18 | F 3.25
L10: G 3.23 | K 3.1 | T 2.65 | M 2.56 | R 2.48 | C 2.85 | E 3.84 | W 2.16 | F 1.82 | S 2.97 | N 2.08 | P 2.93 | Y 2.47 | Q 4.04 | H 3.54 | A 2.92 | I 2.63 | V 2.28 | D 3.29
R16: C 2.33 | H 3.97 | E 4.14 | M 2.88 | I 2.4 | A 2.99 | Y 2.33 | S 3.08 | K 3.29 | G 3.4 | D 4.12 | V 2.77 | F 1.35 | T 3.39 | Q 3.19 | W 1.72 | P 3.43 | N 3.61 | L 2.5
